The target in experiment [1] is T1, monomeric human sBCMA (GenScript) (human, UniProt Q02223 1-54).
T1 construct: extracellular domain; also called monomeric BCMA; monomeric (soluble) BCMA
T1 sequence (looked up): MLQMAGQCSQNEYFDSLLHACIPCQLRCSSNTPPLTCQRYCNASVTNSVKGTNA
Nature of the experiment: SPR (ProteOn XPR36), antibody captured by anti-Fc, sBCMA 100-6.25 nM as analyte. The procedure:
The binding of 15B2GL monoclonal antibody and optimized clones I09, L15, P10, N22, and M02 (described in Example 1) was assessed using monomeric human sBCMA (GenScript, Piscataway, N.J.) using a ProteOn™ XPR36 instrument (Bio-Rad, Hercules, Calif.). The binding of J6M0 also was assessed for comparison. Standard amine coupling was used to immobilize 25 μg/ml anti-Fc polyclonal antibody (Jackson ImmunoResearch, West Grove, Pa.) prepared in 10 mM sodium acetate buffer (pH 4.5) to the surface of a ProteOn™ GLC biosensor chip (Bio-Rad, Hercules, Calif.) pre-activated with 20 mM EDAC (1-ethyl-3-(3-dimethylaminopropyl)carbodiimide hydrochloride) and 5 mM Sulfo-NHS (N-hydroxysulfosuccinimide) at a density of ˜200-600 resonance units (RU). 15B2GL, I09, L15, P10, N22, M02, and J6M0 were subsequently injected at a concentration of 1 μg/ml for capture by the immobilized anti-Fc polyclonal antibody. The sensorgram was recorded by flowing two-fold serial dilutions of sBCMA prepared in PBS (pH 7.4) with 0.005% (v/v) Tween®-20, ranging from 100-6.25 nM, over the captured surface for 150 seconds at 75 μL/minute with dissociation time of 600 seconds. ProteOn™ data analysis software was used to analyze the data.

Experiment [2] concerns the target T2, BAFF-R stably expressed on Ad293 cells (Homo sapiens (Human), UniProt Q96RJ3 1-184).
T2 sequence: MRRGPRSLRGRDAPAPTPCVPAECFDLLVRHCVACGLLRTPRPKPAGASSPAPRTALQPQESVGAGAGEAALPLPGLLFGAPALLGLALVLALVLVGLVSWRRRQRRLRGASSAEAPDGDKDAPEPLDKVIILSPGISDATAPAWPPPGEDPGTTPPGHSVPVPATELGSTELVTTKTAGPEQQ
As to the kind of experiment: FACS on Ad293 cells stably expressing BAFF-R, Alexa Fluor 647 secondary antibody, raw MFI (geo mean). The procedure: (§1) Antibodies 4679, 756, and 15B2GL (as described below) were analyzed by FACS to evaluate binding of antibodies to human BCMA, cynomolgus monkey BCMA, TACI, and BAFF-R using recombinant forms of the receptors stably expressed on Ad293 cells. Binding assays were performed by incubating antibodies 4679, 756, and 15B2GL with 200,000 cells at 4° C. for 45 minutes followed by two washes with PBS+2% FBS. Cells were then incubated with Alexa-Fluor® 647-labeled secondary antibodies at 4° C., followed by two washes in PBS+2% FBS. Anti-BAFF-R, anti-TACI, and anti-human BCMA-APC labeled antibodies were added according to manufacturer's recommended dilution in control wells. Cells were resuspended in 200 uL PBS+2% FBS+DAPI and antibody binding to live cells was analyzed using a Becton Dickinson™ Biosciences LSRII cytometer.

For experiment [3], the target named is T3, membrane-bound human BCMA (human, UniProt Q02223 1-184).
T3 construct: whole, on cells; also called huBCMA
T3 sequence (looked up): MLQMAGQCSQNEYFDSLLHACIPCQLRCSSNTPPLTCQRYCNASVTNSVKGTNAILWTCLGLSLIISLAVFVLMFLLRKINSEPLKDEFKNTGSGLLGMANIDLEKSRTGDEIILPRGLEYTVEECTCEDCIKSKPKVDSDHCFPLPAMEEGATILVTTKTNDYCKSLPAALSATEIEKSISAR
As to the kind of experiment: flow cytometry on Ad293 cells expressing human BCMA, printed as apparent affinity. As for the experimental part:
(§2) Binding of 15B2GL, I09, L15, and J6M0 to membrane-bound human BCMA was evaluated using flow cytometry in multiple myeloma and plasma cell leukemia cell lines that endogenously express BCMA (NCI-H929 and MM.1S, respectively). Binding of 15B2GL, 109, L15 to membrane-bound human BCMA was also evaluated in Ad293 cells expressing human BCMA. Binding assays were performed by incubating the anti-BCMA antibodies with 200,000 cells for 30 minutes at 4° C. followed by two washes with PBS+2% FBS (FACS Buffer). A range of antibody concentrations were evaluated using a 12-point, 3-fold dilution series. Cells were then incubated with 5 ug/mL goat-anti human IgG-AF647 secondary antibodies (Thermo Fisher Scientific, Waltham, Mass.) at 4° C., followed by two washes in PBS+2% FBS. Cells were resuspended in 200 uL PBS+2% FBS+DAPI.
(§3) Fluorescence of live, single cells was measured using a BD Biosciences LSRII cytometer and BD FACSDiva™ software (BD Biosciences, San Jose, Calif.). Data were analyzed using FlowJo™ software (FlowJo, LLC, Ashland, Oreg.). Mean fluorescence intensity values were used to determine percentage bound and EC50 was determined using Prism™ software (GraphPad Software Inc, La Jolla, Calif.).
Background: Flow cytometry measures light scatter and fluorescence of single cells or particles in a stream.

In experiment [4] the target is T3, membrane-bound human BCMA. Nature of the experiment: flow cytometry on MM.1S cells (endogenous BCMA), printed as apparent affinity. As for the experimental part:
as §2, §3

In experiment [5] the target is T4, TACI stably expressed on Ad293 cells (Homo sapiens (Human), UniProt O14836 1-293).
T4 sequence: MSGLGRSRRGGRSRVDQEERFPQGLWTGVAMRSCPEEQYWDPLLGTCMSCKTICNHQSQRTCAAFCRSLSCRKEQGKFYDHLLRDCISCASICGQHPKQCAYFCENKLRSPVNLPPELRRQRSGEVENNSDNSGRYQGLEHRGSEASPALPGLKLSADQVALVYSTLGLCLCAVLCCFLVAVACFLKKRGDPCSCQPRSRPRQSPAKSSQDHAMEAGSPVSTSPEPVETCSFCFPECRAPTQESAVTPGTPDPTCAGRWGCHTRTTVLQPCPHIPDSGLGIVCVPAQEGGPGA
Nature of the experiment: FACS on Ad293 cells stably expressing TACI, Alexa Fluor 647 secondary antibody, raw MFI (geo mean). As for the experimental part:
as §1

In experiment [6] the target is T5, cynomolgus monkey BCMA stably expressed on Ad293 cells (cynomolgus monkey, UniProt A0A2K5UD97 1-183).
T5 construct: whole, on cells; also called cynoBCMA; Cyno BCMA
T5 sequence (A0A2K5UD97 entry or part of it): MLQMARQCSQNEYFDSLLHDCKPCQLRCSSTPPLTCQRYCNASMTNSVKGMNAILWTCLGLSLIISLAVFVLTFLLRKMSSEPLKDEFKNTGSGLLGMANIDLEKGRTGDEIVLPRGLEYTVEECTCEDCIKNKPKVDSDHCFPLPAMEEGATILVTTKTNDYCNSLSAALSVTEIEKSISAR
Nature of the experiment: FACS on Ad293 cells stably expressing cynomolgus BCMA, Alexa Fluor 647 secondary antibody, raw MFI (geo mean). As for the experimental part:
as §1

In experiment [7] the target is T3, membrane-bound human BCMA. Nature of the experiment: flow cytometry on NCI-H929 cells (endogenous BCMA), printed as apparent affinity. As for the experimental part:
as §2, §3

For experiment [8], the target named is T3, membrane-bound human BCMA. Nature of the experiment: FACS on Ad293 cells stably expressing human BCMA, Alexa Fluor 647 secondary antibody, raw MFI (geo mean). As for the experimental part: as §1

The results in this text go back to US20210214460A1 (AstraZeneca / MedImmune, published 2021).

B1: 15B2GL monoclonal antibody (antibody, V domains shown)
VH: EVQLVESGGGLVKPGGSLRLSCAASGFTFRSYSMNWVRQAPGKGLEWVSSISGSSNYIYYADSVKGRFTISRDNAKNSLYLQMNSLRAEDTAVYYCARGGNYYVEYFQYWGQGTLVTVSS
VL: EIVLTQSPGTLSLSPGERATLSCRASQYISSNYLAWYQQKPGQAPRLLIYGASNRATGIPDRFSGSGSGTDFTLTISRLEPEDFAVYYCQQYGSSPITFGQGTKLEIK
notes: Clone 15B2 was converted into human IgG1 and germlined at four residues (15B2GL); also called germlined 15B2
Take B1: in experiment [1], the Kd amounted to 60.7 nM. The binding result in experiment [2] and in experiment [5] was “no binding (tested: 100 ug/mL)” throughout. In addition, the EC50 came out at 3.87 nM in experiment [3], 2.56 nM in experiment [4] and 3.14 nM in experiment [7]. Besides, the “EC50 (read off the curve)” value in experiment [6] is roughly 1 µg/mL; in experiment [8] it was roughly 0.6 µg/mL.

B2: P10 (lead optimized clone of 15B2GL) (antibody, V domains shown)
VH: EVQLVESGGGLVKPGGSLRLSCAASGFTFRSYSMNWVRQAPGKGLEWVSSISGQSNYIYYADSVKGRFTISRDNAKNSLYLQMNSLRAEDTAVYYCARGGNYYVEYFQYWGQGTLVTVSS
VL: EIVLTQSPGTLSLSPGERATLSCRASQYISSNYLAWYQQKPGQAPRLLIYGASNRATGIPDRFSGSGSGTDFTLTISRLEPEDFAVYYCQQYTDSPITFGQGTKLEIK
notes: Cloned into an IgG mammalian expression vector ("Maia") designed for ADC conjugation
In turn, B2 had a Kd in experiment [1] of 5.3 nM.

B3: M02 (lead optimized clone of 15B2GL) (antibody, V domains shown)
VH: EVQLVESGGGLVKPGGSLRLSCAASGFTFSSYSMNWVRQAPGKGLEWVSSISGQSNYIYYADSVKGRFTISRDNAKNSLYLQMNSLRAEDTAVYYCARGGNYYVEYFQYWGQGTLVTVSS
VL: EIVLTQSPGTLSLSPGERATLSCRASQYISSNNLAWYQQKPGQAPRLLIYGASNRATGIPDRFSGSGSGTDFTLTISRLEPEDFAVYYCQQYSSDPITFGQGTKLEIK
notes: as for B2
As to B3, binding in experiment [1] was characterised by a dissociation constant (Kd) of 9.9 nM.

B4: I09 (lead optimized clone of 15B2GL) (antibody, V domains shown)
VH: EVQLVESGGGLVKPGGSLRLSCAASGFTFSSYSMNWVRQAPGKGLEWVSSISGSSNYIYYADSVKGRFTISRDNAKNSLYLQMNSLRAEDTAVYYCARGGNYFVEYFQQWGQGTLVTVSS
VL: EIVLTQSPGTLSLSPGERATLSCRASQYISSNYLAWYQQKPGQAPRLLIYGASNRATGIPDRFSGSGSGTDFTLTISRLEPEDFAVYYCQQYSSDPITFGQGTKLEIK
notes: Cloned into an IgG mammalian expression vector ("Maia") designed for ADC conjugation; also called 109 [sic]
In experiment [1], B4 showed a Kd of 9.8 nM. The values for the EC50 in experiment [3], in experiment [4] and in experiment [7] were 5.3 nM, 4.8 nM and 5.4 nM, respectively.

B5: N22 (lead optimized clone of 15B2GL) (antibody, V domains shown)
VH: EVQLVESGGGLVKPGGSLRLSCAASGFTFSSYSMNWVRQAPGKGLEWVSSISGSSNYIYYADSVKGRFTISRDNAKNSLYLQMNSLRAEDTAVYYCARGGNYFVEYFQYWGQGTLVTVSS
VL: EIVLTQSPGTLSLSPGERATLSCRASQYISSNYLAWYQQKPGQAPRLLIYGASNRATGIPDRFSGSGSGTDFTLTISRLEPEDFAVYYCQQYSSSPITFGQGTKLEIK
notes: as for B2
Regarding B5, the Kd in experiment [1] amounted to 16 nM.

B6: L15 (lead optimized clone of 15B2GL) (antibody, V domains shown)
VH: EVQLVESGGGLVKPGGSLRLSCAASGFTFSSYSMNWVRQAPGKGLEWVSSISGQSNYIYYADSVKGRFTISRDNAKNSLYLQMNSLRAEDTAVYYCARGGNYFVEYFQYWGQGTLVTVSS
VL: EIVLTQSPGTLSLSPGERATLSCRASQYISSNNLAWYQQKPGQAPRLLIYGASNRATGIPDRFSGSGSGTDFTLTISRLEPEDFAVYYCQQYADSPITFGQGTKLEIK
notes: as for B2
The molecule B6 registered a dissociation constant (Kd) in experiment [1] of 4.5 nM. Besides, the EC50 in experiment [3] came to 4.48 nM; in experiment [4], 4.2 nM; in experiment [7], 4.2 nM.

B7: anti-BCMA antibody J6M0 (antibody, V domains shown)
VH: QVQLVQSGAEVKKPGSSVKVSCKASGGTFSNYWMHWVRQAPGQGLEWMGATYRGHSDTYYNQKFKGRVTITADKSTSTAYMELSSLRSEDTAVYYCARGAIYDGYDVLDNWGQGTLVTVSS
VL: DIQMTQSPSSLSASVGDRVTITCSASQDISNYLNWYQQKPGKAPKLLIYYTSNLHSGVPSRFSGSGSGTDFTLTISSLQPEDFATYYCQQYRKLPWTFGQGTKLEIK
Molecule B7 registered a Kd in experiment [1] of 1 nM. The EC50 in experiment [4] worked out at 6.65 nM; in experiment [7], 6.02 nM.

A word on the Kd: it is the concentration at which binding is half-saturated. The term EC50 denotes the concentration giving half of the maximal effect. One may read the EC50 (read off the curve) as the concentration at which the effect is half-maximal.
